Assay results reported in paper PMC12751338, “Biochemical and functional characterization of orf virus decapping protein OV71” (Virology Journal, 2025).

Tests used:
[1] = system: his-OV71 (Orf virus (Taiping strain)); assay: competition; settings: EMSA: 20 mM HEPES, 10 mM EDTA, 1 M KCl, 1 mM DTT, 80 ug/mL BSA, 50% glycerol (so in the source), on ice 15 min, 0.05 pmol RNA. Pulldown: 100 mM K acetate
OV71 (ORFV071; his-OV71) = biological target: T1, OV71 (ORFV071; his-OV71) (Orf virus strain SA00, UniProt Q6TVP9); assay: competition in decapping of radiolabeled capped RNA, TLC; format: biochemical; settings: 206-nt cap-labeled RNA substrate; 4 pmol enzyme; 2 mM MgCl2, 0.5 mM MnCl2, pH 7.5, 37 °C; added product as competitor
T1 construct: His-tagged, pET24a (NdeI/XhoI), E. coli BL21(DE3), Talon cobalt resin; approx. 25 kDa

Row | Compound | IC50 [1] [pmol] | relative decapping ratio (OV71 (ORFV071; his-OV71))
1 | 206 nt uncapped RNA competitor | 40 | –
2 | C[n+]1cn([C@@H]2O[C@H](COP(=O)(O)OP(=O)(O)O)[C@@H](O)[C@H]2O)c2nc(N)[nH]c(=O)c21 [m^7GDP] | – | decapping product m^7GDP modestly inhibited the decapping (Fig. 3D and E), indicating weak affinity
